Source: publication PMC7708983, “A combined NMR and EPR investigation on the effect of the disordered RGG regions in the structure and the activity of the RRM domain of FUS”

Biological target: FUS165-422 (RGG1-RRM-RGG2) (UniProt P35637 165-422)
Test: NMR 1H-15N HSQC chemical shift changes; 1:1 molar ratio; largest shifts near residues 286, 326, 369; 20 mM MES pH 6.5, 150 mM NaCl, RNase free; CW-EPR at room temperature; NMR temperature not given in the material
Settings: protein: recombinant; tags: His-MBP tag removed by TEV; hairpin

Sequence of FUS165-422 (RGG1-RRM-RGG2) (P35637 165-422): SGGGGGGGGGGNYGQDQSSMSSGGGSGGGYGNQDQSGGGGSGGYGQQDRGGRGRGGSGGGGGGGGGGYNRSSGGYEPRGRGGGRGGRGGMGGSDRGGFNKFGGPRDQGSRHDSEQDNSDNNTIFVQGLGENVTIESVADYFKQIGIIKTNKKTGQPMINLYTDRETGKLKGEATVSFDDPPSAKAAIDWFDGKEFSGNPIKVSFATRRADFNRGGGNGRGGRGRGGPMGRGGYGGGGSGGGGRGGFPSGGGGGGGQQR

GGCAGAUUACAAUUCUAUUUGCC (structured_RNA) [hnRNPA2/B1 stem-loop RNA]
binding result: binds
